Measurements taken from US20100041597A1, “PEPTIDES TARGETED TO PROTEIN KINASE C ISOFORMS AND USES THEREOF” (priority 2005, published 2010).
Each block holds one substance with its values, some of them ahead of it.

Columns and labels:
PKC-ε = target: T1, PKC-ε (Homo sapiens, UniProt Q02156); assay: ELISA-based competitive binding assay with purified PKC isoform; parameters: key to Affinity for PKC isoform ε: —: no detectable affinity; Low to very low affinity at 10X or 20X or both PRE concentrations in at least one cell line in the cell extract assay; Low affinity in purified isoform assay.; Moderate affinity at 10X or 20X or both PRE concentrations in at least one cell line in the cell extract assay.; High affinity at 10X or 20X or both PRE concentrations in at least one cell line in the cell extract assay; High affinity in purified isoform assay; details: for inhibition at 50 µM / inhibition at 100 µM / inhibition at 200 µM / calculated binding capacity (100-% n) after subtraction of the DMSO apparent binding capacity: purified PKC-ε; for inhibition at 50 µM / inhibition at 100 µM / inhibition at 200 µM: read-out: calculated binding capacity (100-% n) after subtraction of the DMSO apparent binding capacity; for Affinity for PKC isoform ε: Purified isoform, Table 20
T1 sequence (Q02156 1-737): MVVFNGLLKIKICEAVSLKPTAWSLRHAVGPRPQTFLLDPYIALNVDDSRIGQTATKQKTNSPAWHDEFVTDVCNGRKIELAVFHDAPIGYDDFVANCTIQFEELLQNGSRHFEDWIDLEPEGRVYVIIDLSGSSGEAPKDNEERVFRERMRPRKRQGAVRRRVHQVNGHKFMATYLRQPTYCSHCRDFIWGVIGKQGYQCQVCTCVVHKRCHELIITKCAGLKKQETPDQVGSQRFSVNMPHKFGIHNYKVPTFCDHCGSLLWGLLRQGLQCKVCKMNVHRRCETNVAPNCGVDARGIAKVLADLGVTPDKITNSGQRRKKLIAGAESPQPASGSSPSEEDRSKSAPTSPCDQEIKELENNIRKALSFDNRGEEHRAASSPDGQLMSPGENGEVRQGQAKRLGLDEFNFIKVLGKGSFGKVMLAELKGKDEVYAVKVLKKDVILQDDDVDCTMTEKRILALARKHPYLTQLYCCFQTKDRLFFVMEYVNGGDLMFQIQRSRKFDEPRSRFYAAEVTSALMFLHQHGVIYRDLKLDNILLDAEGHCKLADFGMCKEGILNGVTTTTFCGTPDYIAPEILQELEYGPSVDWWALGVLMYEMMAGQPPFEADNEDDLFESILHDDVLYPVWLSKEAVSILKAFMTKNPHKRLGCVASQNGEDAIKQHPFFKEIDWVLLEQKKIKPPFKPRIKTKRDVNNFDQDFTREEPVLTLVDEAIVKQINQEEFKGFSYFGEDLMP
Description: (§1) Peptides PRE 1, 2, 3, 4, 5, 6, 7, 8, 9, 10, 11, 12 and 13 (see Table 3) were tested for their ability to interfere with binding of PKC isoform-specific antibodies to their target PKC isoforms using a competitive binding assay and purified PKC isoforms.
(§2) Procedure: Competitive binding was assessed using a 96 well plate ELISA-based assay as described below.
(§3) Greiner 96 well ELISA plates were coated with the appropriate PKC isoform diluted in PBSN (PBS with Calcium/Magnesium+0.05% Sodium azide w/w). 50 μL/well at 250 ng/mL was used. Control wells contained PBSN only. Plates were incubated overnight at 4° C.
(§4) The plates were washed 3 times with 200 μL of dH2O per well, then 100 μL of blocking solution was added per well and the plate incubated for 1 h at 37° C. The washing steps with dH2O were repeated and 50 μL of the appropriate PRE solution (PRE stock solution [20 mM in DMSO] diluted in PBSN) was added and the plate incubated for 1 h at room temperature.
(§5) After incubation, 5 μL of 1.1:400 anti-PKC (isoform specific antibody) was added per well (to provide a final concentration of 1:4000). For PKC-epsilon, 1.1:800 dilution was used and for PKC-zeta a 1.1:100 dilution was used due to high and low binding affinity, respectively. The plates were then incubated 1 h at room temperature, followed by washing with dH2O as described above.
(§6) 50 μL of 1:1000 dilution of Alkaline Phosphatase (AP) conjugated antibody (anti-rabbit for all except zeta, which was anti-goat) was then added and the plate incubated for 1 h at room temperature. Washing with dH2O was then repeated. Finally, 100 μL of pNPP solution in pNPP buffer (2 mM MgCl2, 100 mM Sodium bicarbonate in water, pH 9.8) was added to all wells and incubated for 8 minutes for α, βI, βII ε, and ζ, or for 15-20 mins for […] (until sufficient coloration is observed). The reaction was stopped by addition of Stop solution (2N NaOH) and the absorbance at 405 nm was read on a Galaxy Plate reader.
(§7) Controls were PKC without PRE; blank controls, and controls containing the final concentrations of DMSO used for solubilizing the PREs. The non-specific binding capacity related to DMSO was also measured.
(§8) The antibodies used were as follows: anti-PKC α (Cat. No. SC-208); anti-PKC βI (Cat. No. SC-209); anti-PKC βII (Cat. No. SC-210); anti-PKC δ (Cat. No. SC-213); anti-PKC ε (Cat. No. SC-214); anti-PKC ζ (Cat. No. SC-216-G) (all from Santa Cruz Biotechnology, Inc.). The AP-conjugated antibodies were obtained from Jackson Immuno Research Laboratories (West Grove, Pa.).
(§9) Calculations: The OD values measured at 405 nm represent the free PKC coated per well.
(§10) OD405 PKC alone−Blank OD405 of each sample=OD405 coated isoform
(§11) (OD405 of sample X/OD405 coated isoform)×100=% n that represents the percentage of X binding compared to control.
(§12) 100-% n measures the relative binding capacity of X towards the tested isoform.
(§13) The apparent binding capacity of the DMSO samples was then subtracted from X binding capacity.
(§14) All measurements were made in triplicate and the values in the table represent the averaged calculated binding capacity values after subtraction of the DMSO apparent binding capacity (averaged from 12 values, respectively 10.80, 11.20 and 16.40 corresponding to the concentrations of DMSO used to dilute the […] at 200, 100 and 50 μM respectively). The results allow for quantitative comparison of the binding capacity of each PRE towards an individual isoform within each table, but not among isoforms due to differences in sensitivity of the specific antibodies toward the secondary antibody. This applies particularly to PKC-delta. As noted above, the colour development duration was increased 2-3 times and, as a result, the OD405 measurements may be overestimated for this isoform.

PKC-βII = PKC-βII (Homo sapiens, UniProt P05771); assay: as above; parameters: key to Affinity for PKC isoform βII: —: no detectable affinity; Low to very low affinity at 10X or 20X or both PRE concentrations in at least one cell line in the cell extract assay; Low affinity in purified isoform assay.; Moderate affinity at 10X or 20X or both PRE concentrations in at least one cell line in the cell extract assay.; High affinity at 10X or 20X or both PRE concentrations in at least one cell line in the cell extract assay; High affinity in purified isoform assay; details: for inhibition at 50 µM / inhibition at 100 µM / inhibition at 200 µM / calculated binding capacity (100-% n) after subtraction of the DMSO apparent binding capacity: purified PKC-βII; for inhibition at 50 µM / inhibition at 100 µM / inhibition at 200 µM: read-out: calculated binding capacity (100-% n) after subtraction of the DMSO apparent binding capacity; for Affinity for PKC isoform βII: Purified isoform, Table 20
Sequence of PKC-βII (P05771 1-673 isoform P05771-2): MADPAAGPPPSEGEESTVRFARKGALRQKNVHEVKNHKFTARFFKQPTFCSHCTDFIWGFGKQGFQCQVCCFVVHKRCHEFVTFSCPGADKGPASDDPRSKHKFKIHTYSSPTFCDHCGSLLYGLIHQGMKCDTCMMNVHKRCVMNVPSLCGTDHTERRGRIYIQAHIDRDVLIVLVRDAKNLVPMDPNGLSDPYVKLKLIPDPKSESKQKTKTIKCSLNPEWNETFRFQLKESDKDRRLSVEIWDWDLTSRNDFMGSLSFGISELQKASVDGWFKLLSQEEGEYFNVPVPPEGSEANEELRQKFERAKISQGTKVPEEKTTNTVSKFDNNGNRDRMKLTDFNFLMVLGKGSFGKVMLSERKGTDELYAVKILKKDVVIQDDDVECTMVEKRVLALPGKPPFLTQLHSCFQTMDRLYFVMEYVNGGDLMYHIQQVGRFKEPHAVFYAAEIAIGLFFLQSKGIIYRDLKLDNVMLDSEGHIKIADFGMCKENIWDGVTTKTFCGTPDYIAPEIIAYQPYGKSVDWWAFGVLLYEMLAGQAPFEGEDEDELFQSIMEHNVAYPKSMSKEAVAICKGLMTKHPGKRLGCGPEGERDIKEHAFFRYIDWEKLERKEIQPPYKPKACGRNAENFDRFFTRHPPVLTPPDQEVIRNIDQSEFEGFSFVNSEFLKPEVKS
Description: as §1, §2, §3, §4, §5, §6, §7, §8, §9, §10, §11, §12, §13, §14

Substance: Ac-AKGIQEVKGGDAQNLIGISI-NH2 [PRE 3]
inhibition at 50 µM (PKC-ε; PRE 50 μM): 34% | inhibition at 100 µM (PKC-ε; PRE 100 μM): 31.5% | inhibition at 200 µM (PKC-ε; PRE 200 μM): 31% | Affinity for PKC isoform ε (PKC-ε): H | targeting of PKC-ε (PKC-ε; purified isoform, Tables 14-19): targeted most strongly | inhibition at 50 µM (PKC-βII; PRE 50 μM): 0% | inhibition at 100 µM (PKC-βII; PRE 100 μM): 0% | inhibition at 200 µM (PKC-βII; PRE 200 μM): 3.72% | Affinity for PKC isoform βII (PKC-βII): —

Substance: Ac-ISIGILQNADK-NH2 [PRE 7]
Affinity for PKC isoform ε (PKC-ε): L | calculated binding capacity (100-% n) after subtraction of the DMSO apparent binding capacity (PKC-βII; PRE 50 μM): 5.42 | calculated binding capacity (100-% n) after subtraction of the DMSO apparent binding capacity (PKC-βII; PRE 100 μM): 11.07 | calculated binding capacity (100-% n) after subtraction of the DMSO apparent binding capacity (PKC-βII; PRE 200 μM): 2.59 | Affinity for PKC isoform βII (PKC-βII): —

Substance: Ac-KDAQNLIGISI-NH2 [PRE 4, Ac-KDAQNLIGISI-NH2]
inhibition at 50 µM (PKC-ε; PRE 50 μM): 0% | inhibition at 100 µM (PKC-ε; PRE 100 μM): 0% | inhibition at 200 µM (PKC-ε; PRE 200 μM): 2.58% | Affinity for PKC isoform ε (PKC-ε): — | inhibition at 50 µM (PKC-βII; PRE 50 μM): 2.69% | inhibition at 100 µM (PKC-βII; PRE 100 μM): 13.5% | inhibition at 200 µM (PKC-βII; PRE 200 μM): 1.18% | Affinity for PKC isoform βII (PKC-βII): L

Substance: Ac-RDAQNLIGISI-NH2 [PRE 11]
Affinity for PKC isoform ε (PKC-ε): L | calculated binding capacity (100-% n) after subtraction of the DMSO apparent binding capacity (PKC-βII; PRE 50 μM): 7.14 | calculated binding capacity (100-% n) after subtraction of the DMSO apparent binding capacity (PKC-βII; PRE 100 μM): 11.04 | calculated binding capacity (100-% n) after subtraction of the DMSO apparent binding capacity (PKC-βII; PRE 200 μM): 6.40 | Affinity for PKC isoform βII (PKC-βII): —

Substance: RRKKGGKDFVVKR [PRE 1]
calculated binding capacity (100-% n) after subtraction of the DMSO apparent binding capacity (PKC-ε; PRE 100 μM): 5.47 | calculated binding capacity (100-% n) after subtraction of the DMSO apparent binding capacity (PKC-ε; PRE 200 μM): 0.83 | Affinity for PKC isoform ε (PKC-ε): — | Affinity for PKC isoform βII (PKC-βII): —

Second part, the substance after the results:

inhibition at 50 µM (PKC-ε; PRE 50 μM): 0% | inhibition at 100 µM (PKC-ε; PRE 100 μM): 0% | inhibition at 200 µM (PKC-ε; PRE 200 μM): 1.8% | Affinity for PKC isoform ε (PKC-ε): — | inhibition at 50 µM (PKC-βII; PRE 50 μM): 0% | inhibition at 100 µM (PKC-βII; PRE 100 μM): 0% | inhibition at 200 µM (PKC-βII; PRE 200 μM): 0% | Affinity for PKC isoform βII (PKC-βII): —
Substance: Ac-AKGIQEVKGGKDAQNLIGISI-NH2 [PRE 5]

calculated binding capacity (100-% n) after subtraction of the DMSO apparent binding capacity (PKC-ε; PRE 50 μM): 0.91 | calculated binding capacity (100-% n) after subtraction of the DMSO apparent binding capacity (PKC-ε; PRE 200 μM): 1.75 | Affinity for PKC isoform ε (PKC-ε): — | Affinity for PKC isoform βII (PKC-βII): L
Substance: Ac-ISIGILNQADK-NH2 [PRE 10]

calculated binding capacity (100-% n) after subtraction of the DMSO apparent binding capacity (PKC-ε; PRE 50 μM): 2.61 | calculated binding capacity (100-% n) after subtraction of the DMSO apparent binding capacity (PKC-ε; PRE 100 μM): 0.46 | Affinity for PKC isoform ε (PKC-ε): — | Affinity for PKC isoform βII (PKC-βII): —
Substance: Ac-KDANQLIGISI-NH2 [PRE 6]

Affinity for PKC isoform ε (PKC-ε): — | calculated binding capacity (100-% n) after subtraction of the DMSO apparent binding capacity (PKC-βII; PRE 50 μM): 4.55 | Affinity for PKC isoform βII (PKC-βII): —
Substance: Ac-KDAQNLI-NH2 [PRE 12]

Affinity for PKC isoform ε (PKC-ε): — | Affinity for PKC isoform βII (PKC-βII): —
Substance: Ac-RDAQNLI-NH2 [PRE 13]

calculated binding capacity (100-% n) after subtraction of the DMSO apparent binding capacity (PKC-ε; PRE 50 μM): 16.35 | calculated binding capacity (100-% n) after subtraction of the DMSO apparent binding capacity (PKC-ε; PRE 100 μM): 8.53 | Affinity for PKC isoform ε (PKC-ε): L | calculated binding capacity (100-% n) after subtraction of the DMSO apparent binding capacity (PKC-βII; PRE 50 μM): 8.14 | calculated binding capacity (100-% n) after subtraction of the DMSO apparent binding capacity (PKC-βII; PRE 100 μM): 0.3 | Affinity for PKC isoform βII (PKC-βII): H | targeting of PKC-βII (PKC-βII; purified isoform, Tables 14-19): targeted most strongly
Substance: Ac-isigilgnadk-NH2 [PRE 9]

Affinity for PKC isoform ε (PKC-ε): — | calculated binding capacity (100-% n) after subtraction of the DMSO apparent binding capacity (PKC-βII; PRE 50 μM): 1.11 | Affinity for PKC isoform βII (PKC-βII): —
Substance: ILEDKGGDAQNLIGISI [PRE 8]
